Data on one molecule can be found in patent EP0980526B1 (IMPERIAL CANCER RESEARCH TECHNOLOGY LIMITED, dated 1998).

The target of the experiment is T1, AAD-ER (acidic activation domain fused to the LBD of the wild-type ER) (human, UniProt P03372 282-595).
T1 construct: range 282-595; Yeast two-hybrid prey; tested with or without 10^-7 M 17-beta-estradiol (E2); also called LBD of the ER; ER LBD
T1 sequence (looked up): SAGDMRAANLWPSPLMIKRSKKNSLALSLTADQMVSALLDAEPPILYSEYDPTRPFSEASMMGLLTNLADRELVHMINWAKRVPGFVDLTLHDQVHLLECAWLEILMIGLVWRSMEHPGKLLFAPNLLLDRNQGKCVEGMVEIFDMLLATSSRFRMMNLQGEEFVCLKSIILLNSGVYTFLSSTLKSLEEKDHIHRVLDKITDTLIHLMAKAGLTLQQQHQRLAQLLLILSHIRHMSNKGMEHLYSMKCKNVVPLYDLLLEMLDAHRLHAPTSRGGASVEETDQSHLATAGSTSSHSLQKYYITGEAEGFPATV
Briefly: yeast two-hybrid.

B1: DBD alone (other, human, UniProt P03372 176-282, looked up)
chain: MESAKETRYCAVCNDYASGYHYGVWSCEGCKAFFKRSIQGHNDYMCPATNQCTIDKNRRKSCQACRLRKCYEVGMMKGGIRKDRRGGRMLKHKRQRDDGEGRGEVGS
notes: Two-hybrid bait control without a motif
In the case of B1, the binding result is “no binding”.
